US20050282743A1, “Molecular interactions in cells” (Arbor Vita Corporation, priority 2001, published 2005)
One block for each compound: values may come before it. Ends that are not written are not given here. Peptide text beside a SMILES is read from it. * marks the point of attachment. Biotin = O=C1N[C@H]2[C@H](CS[C@H]2CCCCC(=O)*)N1

Legend:
Assay type in all cases: binding
[1] = target: T1, PDZ protein (GST-PDZ fusion) (Homo sapiens, UniProt Q8N3R9); test: G' assay (10 uM PL peptide), results of TABLE 7 and TABLE 12; details: PDZ FLJ 12615 (PALS-1), PDZ Domain 1
T1 construct: made in house; host or cells: E. coli (DH5alpha, BL21 or JM109)
T1 sequence (Q8N3R9 whole entry, the tested form may be a part): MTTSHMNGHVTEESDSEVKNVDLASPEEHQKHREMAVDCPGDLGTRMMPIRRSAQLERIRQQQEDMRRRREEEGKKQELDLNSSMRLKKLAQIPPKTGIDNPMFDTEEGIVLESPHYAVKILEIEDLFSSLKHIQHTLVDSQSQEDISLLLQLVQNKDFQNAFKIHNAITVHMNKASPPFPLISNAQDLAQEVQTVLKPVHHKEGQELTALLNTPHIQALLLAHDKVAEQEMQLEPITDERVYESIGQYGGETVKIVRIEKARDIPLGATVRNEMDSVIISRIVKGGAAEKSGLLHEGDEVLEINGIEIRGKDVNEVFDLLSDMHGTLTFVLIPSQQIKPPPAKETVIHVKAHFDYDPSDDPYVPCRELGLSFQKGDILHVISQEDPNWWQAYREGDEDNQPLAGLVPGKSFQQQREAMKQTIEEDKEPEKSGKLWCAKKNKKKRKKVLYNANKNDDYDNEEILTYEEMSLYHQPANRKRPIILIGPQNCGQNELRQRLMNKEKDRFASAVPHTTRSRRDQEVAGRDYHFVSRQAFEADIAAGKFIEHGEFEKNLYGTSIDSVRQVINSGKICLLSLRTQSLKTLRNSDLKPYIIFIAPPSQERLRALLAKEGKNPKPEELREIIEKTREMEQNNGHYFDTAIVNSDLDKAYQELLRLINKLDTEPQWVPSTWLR
Method in brief: (§1)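 Binding classes derive from A450 nm of bound biotin-tagged PL peptide. A score of 5 needs A450 above 4 in more than two repeats.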

Mint 1 (PDZ Domain 1, 2) = target: T2, Mint 1 (PDZ Domain 1, 2) (Homo sapiens, UniProt Q02410); test: G' assay, TABLE 12; details: A450 nm class of biotinylated PL peptide bound; 0 in conc columns = peptide 10 uM, protein 5 ug/ml
T2 construct: When more than one PDZ domain was cloned, the DNA portion cloned represents the PDZ domains and the cDNA portion located between individual domains; made in house; host or cells: E. coli (DH5alpha, BL21 or JM109)
T2 sequence (Q02410 652-828 limits assumed): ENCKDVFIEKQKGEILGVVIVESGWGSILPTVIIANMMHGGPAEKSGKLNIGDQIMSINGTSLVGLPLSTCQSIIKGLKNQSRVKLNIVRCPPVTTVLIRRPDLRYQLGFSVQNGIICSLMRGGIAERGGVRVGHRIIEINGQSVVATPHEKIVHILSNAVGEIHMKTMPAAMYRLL
Method in brief: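 PL peptide binding to PDZ domain protein, peptide at 10 uM; protein at 5 ug/ml unless another concentration is listed for Kd determination. Bound peptide read at A450 nm and binned into classes 0–5.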

[2] = target: T3, PDZ protein (GST-PDZ fusion) (Homo sapiens, UniProt Q86UR5); test: G' assay (10 uM PL peptide), results of TABLE 7 and TABLE 12; details: PDZ KIAA0340, PDZ Domain 1
T3 construct: made in house; host or cells: E. coli (DH5alpha, BL21 or JM109)
T3 sequence (Q86UR5 whole entry, the tested form may be a part): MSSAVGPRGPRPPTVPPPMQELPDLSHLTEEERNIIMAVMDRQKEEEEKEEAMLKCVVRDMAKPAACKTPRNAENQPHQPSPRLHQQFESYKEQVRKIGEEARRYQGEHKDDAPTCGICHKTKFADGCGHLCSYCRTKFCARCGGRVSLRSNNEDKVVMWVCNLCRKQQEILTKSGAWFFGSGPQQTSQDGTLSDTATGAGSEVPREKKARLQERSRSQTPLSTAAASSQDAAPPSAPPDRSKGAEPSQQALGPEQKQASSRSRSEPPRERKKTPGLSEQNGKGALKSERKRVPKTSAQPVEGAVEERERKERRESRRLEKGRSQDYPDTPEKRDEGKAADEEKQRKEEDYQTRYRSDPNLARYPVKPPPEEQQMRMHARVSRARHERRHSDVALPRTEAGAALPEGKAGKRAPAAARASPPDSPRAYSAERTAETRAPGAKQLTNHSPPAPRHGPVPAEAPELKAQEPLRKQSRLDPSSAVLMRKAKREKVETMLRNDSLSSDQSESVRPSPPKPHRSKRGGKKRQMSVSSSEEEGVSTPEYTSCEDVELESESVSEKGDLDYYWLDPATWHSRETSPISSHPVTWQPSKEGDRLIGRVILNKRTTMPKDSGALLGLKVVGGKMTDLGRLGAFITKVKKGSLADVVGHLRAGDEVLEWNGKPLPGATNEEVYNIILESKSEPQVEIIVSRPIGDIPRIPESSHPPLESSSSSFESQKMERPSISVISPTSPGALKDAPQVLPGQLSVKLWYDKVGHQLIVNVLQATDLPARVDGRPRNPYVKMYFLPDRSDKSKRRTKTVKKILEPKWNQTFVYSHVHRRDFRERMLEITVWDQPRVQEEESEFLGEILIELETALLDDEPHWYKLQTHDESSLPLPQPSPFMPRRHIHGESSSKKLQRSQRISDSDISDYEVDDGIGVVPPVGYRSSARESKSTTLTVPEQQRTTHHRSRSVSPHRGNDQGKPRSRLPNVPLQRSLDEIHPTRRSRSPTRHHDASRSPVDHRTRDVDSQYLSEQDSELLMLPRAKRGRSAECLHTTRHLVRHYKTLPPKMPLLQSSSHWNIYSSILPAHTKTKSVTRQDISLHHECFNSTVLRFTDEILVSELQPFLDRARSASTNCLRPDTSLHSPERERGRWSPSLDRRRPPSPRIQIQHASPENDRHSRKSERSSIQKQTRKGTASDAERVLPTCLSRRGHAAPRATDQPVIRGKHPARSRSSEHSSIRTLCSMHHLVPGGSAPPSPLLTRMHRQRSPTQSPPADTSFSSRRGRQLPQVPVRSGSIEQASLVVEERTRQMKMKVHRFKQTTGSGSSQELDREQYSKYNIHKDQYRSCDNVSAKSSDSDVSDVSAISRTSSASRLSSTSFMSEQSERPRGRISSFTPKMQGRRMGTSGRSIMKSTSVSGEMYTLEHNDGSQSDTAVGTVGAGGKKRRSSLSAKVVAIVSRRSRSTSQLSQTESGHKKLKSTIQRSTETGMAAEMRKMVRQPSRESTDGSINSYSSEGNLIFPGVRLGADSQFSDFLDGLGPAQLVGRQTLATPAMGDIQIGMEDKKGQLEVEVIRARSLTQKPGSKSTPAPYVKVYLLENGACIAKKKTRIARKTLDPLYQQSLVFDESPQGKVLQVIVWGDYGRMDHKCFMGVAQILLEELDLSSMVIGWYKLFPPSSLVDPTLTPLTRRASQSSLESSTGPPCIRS
Method in brief: as §1

[3] = target: T4, PDZ protein (GST-PDZ fusion) (Homo sapiens, UniProt Q8TDM6); test: as above; details: PDZ DLG5, PDZ Domain 2
T4 construct: made in house; host or cells: E. coli (DH5alpha, BL21 or JM109)
T4 sequence (Q8TDM6 whole entry, the tested form may be a part): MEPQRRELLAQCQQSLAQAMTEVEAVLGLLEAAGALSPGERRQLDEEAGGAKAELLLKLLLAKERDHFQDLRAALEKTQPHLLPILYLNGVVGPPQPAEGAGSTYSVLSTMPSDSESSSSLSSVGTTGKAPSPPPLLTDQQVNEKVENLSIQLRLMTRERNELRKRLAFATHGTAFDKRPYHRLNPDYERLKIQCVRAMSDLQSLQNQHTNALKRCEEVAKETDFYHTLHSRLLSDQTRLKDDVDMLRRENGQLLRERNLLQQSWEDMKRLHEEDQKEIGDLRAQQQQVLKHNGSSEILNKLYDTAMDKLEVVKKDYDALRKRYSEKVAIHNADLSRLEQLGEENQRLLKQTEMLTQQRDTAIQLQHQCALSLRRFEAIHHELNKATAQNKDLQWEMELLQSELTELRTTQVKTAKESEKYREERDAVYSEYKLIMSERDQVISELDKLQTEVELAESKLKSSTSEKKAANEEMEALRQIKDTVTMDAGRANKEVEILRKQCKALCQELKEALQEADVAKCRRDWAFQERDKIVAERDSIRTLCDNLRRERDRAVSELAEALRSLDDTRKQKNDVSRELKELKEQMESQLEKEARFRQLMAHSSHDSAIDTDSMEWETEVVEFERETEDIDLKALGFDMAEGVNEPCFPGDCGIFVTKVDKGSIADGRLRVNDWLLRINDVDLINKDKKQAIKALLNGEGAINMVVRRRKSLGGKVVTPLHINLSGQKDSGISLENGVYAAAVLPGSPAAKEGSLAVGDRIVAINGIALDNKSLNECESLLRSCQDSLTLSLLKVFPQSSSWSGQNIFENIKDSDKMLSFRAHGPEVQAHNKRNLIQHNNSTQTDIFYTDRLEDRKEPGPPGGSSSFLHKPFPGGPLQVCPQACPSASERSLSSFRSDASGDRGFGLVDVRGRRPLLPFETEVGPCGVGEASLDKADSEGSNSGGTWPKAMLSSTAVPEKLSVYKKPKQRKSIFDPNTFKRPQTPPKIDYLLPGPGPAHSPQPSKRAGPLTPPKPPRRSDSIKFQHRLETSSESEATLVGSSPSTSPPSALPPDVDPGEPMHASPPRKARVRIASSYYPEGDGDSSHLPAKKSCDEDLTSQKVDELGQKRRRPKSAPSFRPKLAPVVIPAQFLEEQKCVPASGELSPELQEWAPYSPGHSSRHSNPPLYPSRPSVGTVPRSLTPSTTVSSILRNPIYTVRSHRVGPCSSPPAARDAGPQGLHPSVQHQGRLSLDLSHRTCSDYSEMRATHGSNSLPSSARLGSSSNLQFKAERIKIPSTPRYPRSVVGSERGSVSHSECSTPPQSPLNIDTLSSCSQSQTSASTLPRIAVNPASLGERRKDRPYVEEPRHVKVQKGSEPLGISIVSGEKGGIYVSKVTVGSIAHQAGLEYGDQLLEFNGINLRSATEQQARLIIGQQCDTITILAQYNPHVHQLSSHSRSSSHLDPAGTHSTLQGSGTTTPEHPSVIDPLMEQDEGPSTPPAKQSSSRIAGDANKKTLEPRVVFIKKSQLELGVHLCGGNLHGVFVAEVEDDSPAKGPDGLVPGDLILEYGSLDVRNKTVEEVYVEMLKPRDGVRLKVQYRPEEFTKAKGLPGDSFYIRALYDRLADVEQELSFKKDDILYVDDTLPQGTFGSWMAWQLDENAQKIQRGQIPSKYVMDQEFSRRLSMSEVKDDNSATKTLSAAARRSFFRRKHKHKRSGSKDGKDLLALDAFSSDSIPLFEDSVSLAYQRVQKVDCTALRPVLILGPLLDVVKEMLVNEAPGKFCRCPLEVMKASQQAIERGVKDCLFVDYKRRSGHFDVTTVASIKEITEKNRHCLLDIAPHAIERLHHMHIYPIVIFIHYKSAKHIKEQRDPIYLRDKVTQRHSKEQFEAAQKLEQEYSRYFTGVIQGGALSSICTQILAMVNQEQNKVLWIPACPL
Method in brief: as §1

[4] = target: T5, PDZ protein (GST-PDZ fusion) (Homo sapiens, UniProt Q9H6Y5); test: as above; details: PDZ FLJ21687, PDZ Domain 1
T5 construct: made in house; host or cells: E. coli (DH5alpha, BL21 or JM109)
T5 sequence (Q9H6Y5 1-334): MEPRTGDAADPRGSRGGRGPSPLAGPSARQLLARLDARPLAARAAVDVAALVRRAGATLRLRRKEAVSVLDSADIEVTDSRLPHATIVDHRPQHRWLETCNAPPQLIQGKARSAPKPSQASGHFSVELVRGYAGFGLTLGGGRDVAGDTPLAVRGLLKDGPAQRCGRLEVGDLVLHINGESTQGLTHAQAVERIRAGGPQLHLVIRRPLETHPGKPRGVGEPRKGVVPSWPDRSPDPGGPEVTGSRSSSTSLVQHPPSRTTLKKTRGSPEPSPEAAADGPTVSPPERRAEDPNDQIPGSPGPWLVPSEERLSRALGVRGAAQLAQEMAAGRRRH
Method in brief: as §1

[5] = target: T6, PDZ protein (GST-PDZ fusion) (Homo sapiens, UniProt Q8IVF5); test: as above; details: PDZ TIAM-2, PDZ Domain 1
T6 construct: made in house; host or cells: E. coli (DH5alpha, BL21 or JM109)
Method in brief: as §1

[6] = target: T7, PDZ protein (GST-PDZ fusion) (Homo sapiens, UniProt Q9NZW5); test: as above; details: PDZ P55T, PDZ Domain 1
T7 construct: made in house; host or cells: E. coli (DH5alpha, BL21 or JM109)
T7 sequence (Q9NZW5 1-540): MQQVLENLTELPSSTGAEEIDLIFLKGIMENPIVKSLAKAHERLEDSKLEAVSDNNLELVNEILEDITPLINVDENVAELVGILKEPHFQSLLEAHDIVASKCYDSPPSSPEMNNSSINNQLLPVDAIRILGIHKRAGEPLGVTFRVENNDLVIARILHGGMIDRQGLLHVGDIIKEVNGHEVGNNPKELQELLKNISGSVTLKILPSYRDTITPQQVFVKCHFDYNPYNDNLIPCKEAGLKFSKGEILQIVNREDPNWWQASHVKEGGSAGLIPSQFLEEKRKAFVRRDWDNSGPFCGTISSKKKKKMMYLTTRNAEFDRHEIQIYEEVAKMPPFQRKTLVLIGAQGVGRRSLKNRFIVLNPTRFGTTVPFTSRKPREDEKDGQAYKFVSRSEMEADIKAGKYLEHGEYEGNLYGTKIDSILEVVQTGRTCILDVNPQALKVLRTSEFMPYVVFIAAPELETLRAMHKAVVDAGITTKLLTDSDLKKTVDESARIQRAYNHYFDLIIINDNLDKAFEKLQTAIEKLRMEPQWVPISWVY
Method in brief: as §1

Compound: CSCC[C@H](NC(=O)[C@H](C)NC(=O)[C@H](CCCNC(=N)N)NC(=O)CNC(=O)[C@@H](NC(=O)[C@H](Cc1c[nH]c2ccccc12)NC(=O)[C@H](CCCNC(=N)N)NC(=O)CNC(=O)CCCC[C@@H]1SC[C@@H]2NC(=O)N[C@@H]21)[C@@H](C)O)C(=O)N[C@@H](CO)C(=O)N[C@@H](C)C(=O)N[C@@H](Cc1c[nH]c2ccccc12)C(=O)N[C@@H](CCCCN)C(=O)N1CCC[C@H]1C(=O)N[C@H](C(=O)N[C@@H](CCCNC(=N)N)C(=O)N[C@@H](CCCNC(=N)N)C(=O)N[C@@H](CCC(=O)O)C(=O)N[C@H](C(=O)N[C@@H](CCC(=O)O)C(=O)N[C@H](C(=O)O)C(C)C)[C@@H](C)O)[C@@H](C)O [HPV E6 #35 (modified)] (Biotin-GRWTGRAMSAWKPTRRETEV-OH; C-terminus assumed)
- Classification [1]: 1 (A450 nm 0-1)

Compound: CC(C)C[C@H](NC(=O)[C@H](C)NC(=O)[C@@H](NC(=O)[C@@H](NC(=O)[C@H](Cc1c[nH]cn1)NC(=O)[C@H](CC(C)C)NC(=O)CNC(=O)[C@H](CCC(N)=O)NC(=O)CNC(=O)CNC(=O)[C@H](C)NC(=O)[C@H](C)NC(=O)[C@H](CCCNC(=N)N)NC(=O)[C@H](C)NC(=O)[C@H](CO)NC(=O)[C@H](CC(=O)O)NC(=O)[C@H](CC(=O)O)NC(=O)[C@H](Cc1c[nH]c2ccccc12)NC(=O)[C@H](C)NC(=O)CCCC[C@@H]1SC[C@@H]2NC(=O)N[C@@H]21)C(C)C)[C@@H](C)O)C(=O)O [LPAP] (Biotin-AWDDSARAAGGQGLHVTAL-OH; C-terminus assumed)
- Classification (Mint 1 (PDZ Domain 1, 2)): 1 (A450 nm 0-1)

Compound: A2AA_HUMAN (modified) (Biotin-HDFRRAFKKILARGDRKRIV; not fully specified)
- Classification [2]: 1 (A450 nm 0-1)
- Classification [3]: 1 (A450 nm 0-1)
- Classification [4]: 1 (A450 nm 0-1)

More lines, now with the values ahead:

- Classification [5]: 3 (A450 nm 2-3)
Compound: ELLQFCRTPNPALKNGQYWV (Biotin-ELLQFCRTPNPALKNGQYWV)

- Classification [6]: 1 (A450 nm 0-1)
Compound: KTMPAAMFRLLTGQETPLYI (Biotin-KTMPAAMFRLLTGQETPLYI) [MINT-2]
